Data from a protein production outcome set (Wang et al. 2014).

Assay: label from the status in PepcDB records

Row | Sequence | protein production
1 | MPFSKNLENLTAPFKRIKNRSLVLALGFLILTFCLLLFLILSDVSRLISGKDFFYVIQSHPKQTLIEDENYFYANKGLYKTNKEAFLRVYKIPESMPIERRENLSKVSKIFLALLFFISSMLFGIFWRLPKRLDTKMSLESAHKNELENAFQRYDALGVRFEDIAGVDEVKEELLEVIDYLKNPKKYQDLGIFLPKGVLLIGPPGVGKTMIAKALASEARVPFFYESGSAFSQIYVGAGAKKVHELFMHAKRHAPSIIFIDEIDALGKARGGHRSDEREATLNQLLTEMDGFLQNDEVVVIGATNQMEVMDEALLRSKRFDRRIFISLPDLLERQSILEKLLENKKHALNYLKIAKICVGFSGAMLATLINESALNALKHQRTEIAESDILEVKDKIAYGKKKPQTLDENQKELVALYQSAKALSAYWLEIEFDKAPILGEFIAFNENKIHSESEIKNYIKVYLSGTIILELLYKERYSLSKQDLQKAKFLNEFMASELLLAPTKESLSVLYEEQLEFLKPQIAACKRLSVLLLEQEYLEHSNLYDLLNG | failed
2 | MPGAMHDEPDHPELSITVPTLNEAEGLERFFAMLSAQQGVRFELVIADGGSTDGTPESARRLAAATPFAATVIETGRGRGRQMNAGAAAAAGDTLLFLHADCAFPDPLALRTALDAFTQTVAAGGSHRVAGHFRLRFERTDSAPSLPYYFYEWKARLHRPGCTHGDQGLLLGRRFFAEAGPFDESFPILEDVGLAERIAALGEWLLLPAEIVTSARRFEAEGLRERQTLNALLMNFAAMGWDPFLAELPRLYQSQDRAGRLLLGPVLRLIARLLRPLPRRERGRLWRETGRYVRANAWQIPFFLDVRRHFRQGTPVGEGETPRLDLHDRIFDRLTENGAGHRATALLVWIWFRLSLLREPLTPPAARNPEGNGSLEHHHHHH | not failed
3 | MPGFNYGGDQDEVYTPYRRVLVTGATGLLGRAVYKEFKNNDWDALGCGYNRARPFFLKCNLLDEDAVRGVIQSFQPHVIVHCAAERRPDVVERHTEAAMNLNVHACATLAKEAGGSFLIYISTDYVFDGRNPPYGENDAPNPLNLYGKSKLEGEREILRHCPGAAVLRVPILFGEVEKVEESAVTVLFERVQEGAESCTIDHCQQRFPTYTNDVARVCRNMAERALQDQSLRGIFHYSAKEQMTKYEMTCAIADAFNLPSSHLIPMTEQPAGAGAQRPQNAQLECSRLELLGLSVESTPFKNAIRDSLWPFQHDKRWRQTVFH | not failed
4 | MPGIDFDALYRGESPGEGLPPITTPPWDTKAPKDNVIGWHTGGWVHGDVLDIGCGLGDNAIYLARNGYQVTGLDISPTALTTAKRRASDAGVDVKFAVGDATKLTGYTGAFDTVIDCGMFHCLDDDGKRSYAASVHRATRPGATLLLSCFSNAMPPDEEWPRSTVSEQTLRDVLGGAGWDIESLEPATVRRELDGTEVEMAFWNVRAQRRGS | failed
5 | MPGIDKLPIEETLEDSPQTRSLLGVFEEDATAISNYMNQLYQAMHRIYDAQNELSAATHLTSKLLKEYEKQRFPLGGDDEVMSSTLQQFSKVIDELSSCHAVLSTQLADAMMFPITQFKERDLKEILTLKEVFQIASNDHDAAINRYSRLSKKRENDKVKYEVTEDVYTSRKKQHQTMMHYFCALNTLQYKKKIALLEPLLGYMQAQISFFKMGSENLNEQLEEFLANIGTSVQNVRREMDSDIETMQQTIEDLEVASDPLYVPDPDPTKFPVNRNLTRKAGYLNARNKTGLVSSTWDRQFYFTQGGNLMSQARGDVAGGLAMDIDNCSVMAVDCEDRRYCFQITSFDGKKSSILQAESKKDHEEWICTINNISKQIYLSENPEETAARVNQSALEAVTPSPSFQQRHESLRPAAGQSRPPTARTSSSGSLGSESTNLAALSLDSLVAPDTPIQFDIISPVCEDQPGQAKAFGQGGRRTNPFGESGGSTKSETEDSILHQLFIVRFLGSMEVKSDDHPDVVYETMRQILAARAIHNIFRMTESHLLVTCDCLKLIDPQTQVTRLTFPLPCVVLYATHQENKRLFGFVLRTSSGRSESNLSSVCYIFESNNEGEKICDSVGLAKQIALHAELDRRASEKQKEIERVKEKQQKELNKQKQIEKDLEEQSRLIAASSRPNQASSEGQFVVLSSSQSEESDLGEGGKKRESEA | failed
6 | MPGKKQEVQEELLEEQLEKAYQGRINNIKESFAGVLSVLKTANTKKLERITARSHNYLGLLHMIQGNHIKSITHSRQALEYFQRVQSLKDIADAKFNIASSLYKTDNFHDGLKGLLECRQIYKSIGEGRSECRSLKSIATIYEYWSDVNKAFLIYQECIDLATRHGDLAMLSNVYNPMSGLYLKRGDIETATKLSDKSIAIKKKIKDERGLAYSIYGKGKVFFAQQKFAQAETYFLQSLELQQKFGDKLGAGMVLNKLGLTYVEQKKYLQAEKILKQAVSLAEKHNVKVNVYKSYYSLYTLYKLQHKESNALQCLEQFVLHKENNVQSHTSDIIRSYEAANEIYRLEKDTKAQIDYLEIVQKKNTELDSFFYRVSHDLKGPISSLLGLNELIEKEQFDGEALKYFNMYKKLSTRIDAIVMDLITITRISSDKIVPVKIDFMQLIEDCIHSYAYFDNFEHIQFNIEVEEGISFQSEWVIVNTILQNLIENSIKYMRHDVKKPYVFIQVYTQGQMLCIKVTDNGQGISEEYQEKIYEMFFRANDKADGSGLGLYILKRAVERLQGTVSLKSKPGKGAAFTVCIKGE | failed
7 | MPGKREMQKCSLITVLSLSVLMLAGCTTTYTMTTRTGEIIETQGKPEVDTATGMTKYADVYGYHRVMKTSEIVQTTEGASKLDWLEHHHHHH | not failed
8 | MPGTGLPIRGRRDPETIETRCLNNDQDSRLALIHAWLQTLPGSLGLRPETMEPASSDASFRRYFRLQAAAGTLIVMDAPPPHEDVRPFVHIDGLLREAGVNVPEIVAQDAGQGLLLLSDLGQDTFYQRIRAGISDAQLQSMYRDTLATLVRLQQASTAGLPAYDGARLAAELELFPEWYVGRHHGVTLDDKTAAALRQIFGLLAAEGDTGHRVLVHRDFHSPNLMVCDEPRYGPNPGVIDFQDALAGPLTYDLASLVTDARTTWEEPQQLDWAIRYWELARAAGLPVDADFAQFHRAYEWTGLQRNLRILGVFARLNHRDGKSIYLSHMPRVSGYVRQVAQRYGAFAPLLRLLDKLDDRQVQVGYTF | failed
9 | MPGTNNEATRKEEVKKIVENRRRKAELIREQQIKKRNTIIAIGVGILVVLILVMVLAKSCSSGKKPAKTSATTAKQITTVAQTTVQETTTAEEYMYTTDVLNLRKSASAKSKLITQIGAGKKVQVISENGKWCQIKYGKDTGYVMKKYLSYSNMLD | failed
10 | MPGVTVKDIDQHAVTKAVAVFLKKTGKLKVPDQMDIVKTAKFKELAPYDPDWFYVRCASILRHLYHRSPAGVGSITKIYGGRKRNGVHPSHFCRAADGAARKALQALEHARLVEKHPDGGRKLSSIGQRDLDRIANQIVFKQRDAAKQTGPIVISK | failed
11 | MPHAARSDAAALRAPAADDGAYGKPAIALHWIIALLIFAAFGLGLYMTDIPGFTPTKLKLYSYHKWAGITVLILAVLRVLWRLTHPAPAPVAGMPAWQQKAAEGAHIVLYLLILAVPLTGYLLSVAAGIKVVYLGLWELPMPFDKSDALKEIFQVAHEWLNWTMATIVVLHILAALKHHIVDSDGTLRRMLPFLR | failed
12 | MPHAVQGQPENAVHPPQGTAWPGLEPPEGFLMANPRLSRRHVRRMRSERPPPTTRPPDWRFPMKSTLNLLLTVSLALSGAGLAQTAPNVPTQAAPTTAAPANAAQLAAEARDLTNRARTTYPAGSASIDQPLWKQAADRAEAAVSAAPNNPDVLRLRAQIYTEVGFWKQAESSWRAYFAVAPVAAGQNEARAAGNVQYNLGYAAYTRGQSAQAAAYFKACLTLDPQSVPCATWAARTALESGDYALAQNLYTQALSLAPTDKTLNYFAQVARNASTYGPAATQAFSRAYASLDAGRRAEALAGFQEAARSAPNFPEAQREAGRLALEAGDTGAALSAYQALAALPGATDSDRYNLGLAQEGQQYGLRAVQTFRTAYGKYSAGDKAGAEAGFLQATTASANYGKAWAWLGRVRYEAKNYAGAAEAYGRAVALDPGDKTSAYFLKLAQQGK | failed
13 | MPHKLLPWLAIASAMSAFTLQAQPMPDTELLMGSYTQGKSEGIYRFGFNSQTGLIDAKPLQVIKSDNPSWLTLSKDQRHLFAVNENGPGQKDVVGKVSSFAIDPKTRQITPINQVQSRGEEPTHSSLSYDGRYLFVANYAVNPDPGGALTVVPVGKDGTLSEAVQVLPLGPGSKVNSERQLSSHVHLAVPTPDNKYVVSADLGADKLFVYRYDANQAKPLQPAKVPTVQLPGGSGPRHTLFSADGKHAWLVLEMTAQVAVFDYHDGGFKQTQLVDMKNKGVEEKNGGGALHTSPDGKFLYVTNRGDANQVVVFRIDQASGKLEEIQRRSLEGKEPREFAFDPTGKFMLFANQKSNQIVTVRRDPQSGMIGDTVQKFDADSPSYLRFLTEK | failed
14 | MPHPFVYHDCPMSRLLFRYICTETAVPFALGLTVFTFVLLMGRLLKLAEMVFARGVPFLDVTRLILYMLPSFFLVAIPMAFLLAVLLAMGRLSADSEVTAMKASGMSIGTIAVPVIAFGVITYAATTFVSVYALPWGNTAFKKFLHGVIETRAAMSITEKVFNDEFPGLVIYVDGFDPKSGRISGILIHDERNPDEPSTIFAASGQLATNPEERIVRLRLNNGGIHRGIGTGGYRLVEFTSYDLSIALQREQQKARLNEEDMTLGELLARMKSPGEQPKLVREMHFELHKRFALPFACVVFAVIAVPLGIQNQRSGRAGGFAAGIILLMLYYILMSAGKTVNEKGIAPAFVAVWIPNVLFLGLGIFLLKRAALDRAIPLAEYVTTALAWVRHRFERRKT | failed
15 | MPHSTTEPRRDMPDALISIVIPCRNEAANLPLLIDEIEAAMAGRHFELIIVNDGSTDETAAVLTEQAALRSFPVRELRHQKSAGQSLSVRSGAWAARGGIVATIDGDGQNDPQYIPVLVDALRQAGPDFGAAQGQRLKRRDSKVKQLASRFANWLRNAILHDETRDTGCGLKAVHTEILRKLPFFDGTHRFVPALVIQEGYRVVHCDVVDRSRRHGKSNYGIFDRGLQGALDLGGVWWLRRRRRRMPKVEEIKRV | failed
16 | MPIAGIPYTEIVMAIVAFVLGFLVGYLIKNVIKIGIIVLAIIVILIAIGVVSPHTVVSGLQSMGVYATQAEQYVSRIINYLPYNSILFIIGFVIGLVKG | failed
17 | MPIRDDISWPPSAVCSVSLILHLPGRFGHVSVAHLLLDHGADVNAQNRLGASVLTVASRGGHLGVVKLLLEAGAFVDHHHPSGEQLGLGGSRDEPLDITALMAAIQHGHEAVVRLLMEWGADPNHAARTVGWSPLMLAALTGRLGVAQQLVEKGANPDHLSVLEKTAFEVALDCKHRDLVDYLDPLTTVRPKTGQAACPPWLHRGPQIVFMWLKLRIALLEGHAELRVQPCRPLRLRKWCA | not failed
18 | MPKIRIRKFWPSGAGTVPGVLLIALALGCVGHRAKFADETFSSDEAEIRSAVEPLPPKAQLVYLVLAGELAGQRGRYEVALEHYLQAARLSRDGRLAERAMQIALFIKKYPEAVESVALWLKAEPRHAGARRMATLLYLKEGRRDEAVTQMKVLLTLPDADLENTLIELVKVLGNEVPRQDATEFMDALLRAFPAMADLHFAAALLAANQGEFQQALSETEEALKLHPDWGRARVLQAQVMAQMGDSATAGDLIQRALKRDPDNARLRLIYSQFLIKSGDIEGARRELERIVAKEPGNQDARFGLGLALIDLGRLDAARREFAALAASEKWRVQAYFYLGLIDARKGRLNEALDWFDRVTTGPTEFDARVNGITVLISLGRLTEARTRLADIRRRFPNESVRLYLLEAELLSKNRDYEDAFNLLTDALGENPGQSDLLYARALVAENLGRFDVLEADLRQVLEKSPDDPNALNALGYTLVERGERLDEAKGYLDRAIRLKPDDPAILDSYGWLLYRLRKYAEAIEYLRRAYDKVQDPEIASHLGEVLMESGRRQEARKILREAWKKAPEHEDMQRIRARYPELLAP | failed
19 | MPKKGSRPDRPSRRCARMTSTVPALGTRSAEGSALQAVLLDMDGTLVDTEGFWWDVEAEVFAALGHPLDESWRHVVVGGPMARSAGFLIEATGADITLAELTVLLNDGFEARIGRTLPLMPGAARLLAELAAHEIPTALVSASHRRIIDRVLTSLGSQHFALTVAGDEVARTKPFPDPYLLAASGLGAEPARCAVIEDTATGVAAAEAAGCRVVAVPSVAPIAPAARRTVVTSLEEVDLPFLRGLMTEMR | failed
